System: mice
Assay: High fat diet and PO gavage for 10 days (palm oil-induced NASH mouse model)
Assay type: in vivo
Conditions: HFD and PO gavage 10 days; in comparison with Arl8b^Q75L-treated mice
Protocol: For comparison, control mice were treated with Adv-MG1022 (a vector expressing Arl8b^Q75L) and then subjected to HFD and PO gavage for 10 days. (A) provides visceral views, and liver morphology views, of Arl8b^Q75L and Arl8b^T34N-treated mice, showing enhanced resistance to fatty liver and fat accumulation in Arl8b^T34N-treated mice. (B) provides images of liver sections stained with Oil Red O from mice subjected to a high fat diet and PO gavage for 10 days followed by treatment with Adv-MG1023 vector expressing Arl8b^T34N. For comparison, images of liver sections stained with Oil Red O obtained from mice treated with Adv-MG1022 (a vector expressing Arl8b^Q75L) and then subjected to HFD and PO gavage for 10 days are also provided.
In FIG. 49, mice were subjected to a high fat diet and PO gavage for 10 days, followed by treatment with Adv-MG1023 vector expressing Arl8b^T34N. For comparison, mice were treated with Adv-MG1022 (a vector expressing Arl8b^Q75L; FIG. 46) and then subjected to HFD and PO gavage for 10 days. These experiments may be considered as palm oil-induced NASH mouse models. FIG. 49A provides visceral views, and liver morphology views, of Arl8b^Q75L and Arl8b^T34N-treated mice, showing enhanced resistance to fatty liver and fat accumulation in Arl8b^T34N-treated mice. […]

B1: Arl8b^T34N: putative GDP-bound, dominant negative Arl8b mutant (Thr-to-Asn at 34; SEQ ID NO: 12), expressed from plasmid or adenovirus Adv-MG1023; tagged forms used (protein)
chain: MLALISRLLDWFRSLFWKEEMELTLVGLQYSGKNTFVNVIASGQFSEDMIPTVGFNMRKVTKGNVTIKIWDIGGQPRFRSMWERYCRGVNAIVYMIDAADREKIEASRNELHNLLDKPQLQGIPVLVLGNKRDLPNALDEKQLIEKMNLSAIQDREICCYSISCKEKDNIDITLQWLIQHSKSRRS
modifications: GFP/RFP tags in some forms; T34N substitution, GDP-binding
notes: tagged forms used
fatty liver disease arising from HFD: enhanced resistance to fatty liver disease

From US11298402B2, “Lysosomal degradation of lipids and proteins and method of use thereof” (University of Ottawa, priority 2015, dated 2022)
